We go through three variants from PMC9410543.

B1: unnamed (parent)
chain 1: VGDDSGGFSTTVSTEQNVPDPQVGITTMKDLKGKANRGKMDVSGVQAPVGAITTIEDPVLAKKVPETFPELKPGESRHTSDHMSIYKFMGRSHFLCTFTFNSNNKEYTFPITLSSTSNPPHGLPSTLRWFFNLFQLYRGPLDLTIIITGATDVDGMAWFTPVGLAVDTPWVEKESALSIDYKTALGAVRFNTRRTGNIQIRLPWYSYLYAVSGALDGLGDKTDSTFGLVSIQIANYNHSDEYLSFSCYLSVTEQSEFYFPRAPLNSNAMLSTESMMSRIAAGDLESSVDDPRSEEDKRFESHIECRKPYKELRLEVGKQRLKYAQEELSNEVLPPPRKMKGLFSQ
chain 2: MATFISVQLKKTSEVDLAKPLVKFIQQTYPSGGEEQAQYCRAAEELSKLRRAAVGRPLDKHEGALETLLRYYDQICSIEPKFPFSENQICLTFTWKDAFDKGSLFGGSVKLALASLGYEKSCVLFNCAALASQIAAEQNLDNDEGLKIAAKHYQFASGAFLHIKETVLSALSREPTVDISPDTVGTLSLIMLAQAQEVFFLKATRDKMKDAIIAKLANQAADYFGDAFKQCQYKDTLPKEVFPVLAAKHCIMQANAEYHQSILAKQQKKFGEEIARLQHAAELIKTVASRYDEYVNVKDFSDKINRALAAAKKDNDFIYHDRVPDLKDLDPIGKATLVKSTPVNVPISQKFTDLFEKMVPVSVQQSLAAYNQRKADLVNRSIAQMREATTLANGVLASLNLPAAIEDVSGDTVPQSILTKSRSVIEQGGIQTVDQLIKELPELLQRNREILDESLRLLDEEEATDNDLRAKFKERWQRTPSNELYKPLRAEGTNFRTVLDKAVQADGQVKECYQSHRDTIVLLCKPEPELNAAIPSANPAKTMQGSEVVNVLKSLLSNLDEVKKEREGLENDLKSVNFDMTSKFLTALAQDGVINEEALSVTELDRVYGGLTTKVQESLKKQEGLLKNIQVSHQEFSKMKQSNNEANLREEVLKNLATAYDNFVELVANLKEGTKFYNELTEILVRFQNKCSDIVFARKTERDELLKDLQQSIAREPSAPSIPTPAYQSSPAGGHAPTPPTPAPRTMPPTKPQPPARPPPPVLPANRAPSATAPSPVGAGTAAPAPSQTPGSAPPPQAQGPPYPTYPGYPGYCQMPMPMGYNPYAYGQYNMPYPPVYHQSPGQAPYPGPQQPSYPFPQPPQQSYYPQQ
B2: unnamed (parent)
chain 1: B1 chain 1
chain 2: MAVSESQLKKMVSKYKYRDLTVRETVNVITLYKDLKPVLDSYVFNDGSSRELMNLTGTIPVPYRGNTYNIPICLWLLDTYPYNPPICFVKPTSSMTIKTGKHVDANGKIYLPYLHEWKHPQSDLLGLIQVMIVVFGDEPPVFSRPISASYPPYQATGPPNTSYMPGMPGGISPYPSGYPPNPSGYPGCPYPPGGPYPATTSSQYPSQPPVTTVGPSRDGTISEDTIRASLISAVSDKLRWRMKEEMDRAQAELNALKRTEEDLKKGHQKLEEMVTRLDQEVAEVDKNIELLKKKDEELSSALEKMENQSENNDIDEVIIPTAPLYKQILNLYAEENAIEDTIFYLGEALRRGVIDLDVFLKHVRLLSRKQFQLRALMQKARKTAGLSDLY
B3: unnamed (parent)
chain 1: B1 chain 1
chain 2: not shown

One assay covers variants of B1. Nature of the assay: protein-fragment complementation assay (split Gaussia luciferase, GLuc2 bait / GLuc1 prey). The note with it: with partner chain of the complex shown;; read off a plot.
On to chain 1 Y309A K310A E311A L312A, for which the response (Log2 normalized LU) amounted to 4.7.

In another assay the parent is B2. Described as above. Conditions: with partner chain of the complex shown;; read off a plot.
For chain 1 Y309A K310A E311A L312A, the response (Log2 normalized LU) came to 4.4.

In the next assay the parent is B3. The description is as above. Conditions: with partner chain of the complex shown;; read off a plot.
With chain 1 Y309A K310A E311A L312A, the response (Log2 normalized LU) was 3.
